Our source for the EC50 (read off the curve), Median, FL2-H and IC50 values is patent publication US20210277097A1.

Substitutions are numbered along the chain they refer to. Bounds are passed on as bounds.

The target in assay [1] is T1, recombinant purified human RGM A (R&D Systems Cat#2459-RM) (human) (UniProt Q96B86).
T1 sequence: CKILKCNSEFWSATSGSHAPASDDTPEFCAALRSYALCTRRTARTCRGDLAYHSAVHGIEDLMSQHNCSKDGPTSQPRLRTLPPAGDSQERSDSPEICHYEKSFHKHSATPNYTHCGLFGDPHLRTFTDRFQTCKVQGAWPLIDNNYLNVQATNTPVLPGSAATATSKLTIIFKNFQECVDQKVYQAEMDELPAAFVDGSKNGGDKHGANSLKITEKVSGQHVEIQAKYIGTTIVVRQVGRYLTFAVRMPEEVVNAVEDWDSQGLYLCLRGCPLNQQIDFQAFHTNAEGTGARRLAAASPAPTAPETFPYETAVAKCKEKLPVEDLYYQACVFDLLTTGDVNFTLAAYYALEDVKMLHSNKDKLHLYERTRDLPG
As to the kind of experiment: direct ELISA: plate coated with hRGM A 2 µg/mL, biotinylated antibody in 1:5 dilutions, streptavidin-HRP, TMB, OD 450.

The target of assay [2] is rat RGM A expressed on BAF3 cells (rat). Briefly: FACS on BAF3-ratRGMA stable cell line, unlabelled antibody, anti-rat IgG PE; unstained cells 4.71.
In assay [3] the target is T1, recombinant purified human RGM A (R&D Systems Cat#2459-RM) (human). Briefly: competition ELISA on coated hRGMA; competitor: biotinylated chimeric 5F9. A general note: An ELISA detects its analyte on a solid surface through an enzyme-linked reagent.

B1: rat anti-human RGM A monoclonal antibody 8D1 (antibody, V domains shown)
VH: EVQLQQSGPELVKPGTSVKMSCKTSGYTFTSYVMHWVKQKPGQGLEWIGYIIPYNDNTKYNEKFKGKATLTSDKSSSTAYMELSSLTSEDSAVYYCARRNEYYGSSFFDYWGQGTTLTVSS
VL: DIQMTQSPASLSASLEEIVTITCQASQDIDNYLAWYHQKPGKSPRLLIYGATNLADGVPSRFSGSRSGTQFSLKINRLQIEDLGIYYCLQGYIPPRTFGGGTKLELKR
Regarding B1, the EC50 (read off the curve) in assay [1] was 200 ng/mL. Further, the Median, FL2-H in assay [2] amounted to 5.37.

B2: rat anti-human RGM A monoclonal antibody 5F9 (antibody, V domains shown)
VH: EVQLVESGGGLVQPGSSLKLSCVASGFTFSNYGMNWIRQAPKKGLEWIGMIYYDSSEKHYADSVKGRFTISRDNSKNTLYLEMNSLRSEDTAIYYCAKGTTPDYWGQGVMVTVSS
VL: DVVLTQTPVSLSVTLGDQASMSCRSSQSLEYSDGYTFLEWFLQKPGQSPQLLIYEVSNRFSGVPDRFIGSGSGTDFTLKISRVEPEDLGVYYCFQATHDPLTFGSGTKLEIKR
For the molecule B2, in assay [1], the concentration for a half-maximal effect (EC50 (read off the curve)) was found to be 80 ng/mL. This molecule also registered a Median, FL2-H in assay [2] of 29.6.

B3: h5F9.12 (antibody, human IgG1, V domains shown)
VH: B2 VH with S16G, K19R, V23A, K42G, E82Q, S88A, I93V, V109T
VL: DVVMTQSPLSLPVTLGQPASISCRSSQSLEYSDGYTFLEWYLQKPGQSPQLLIYEVSNRFSGVPDRFSGSGSGTDFTLKISRVEAEDVGVYYCFQATHDPLTFGQGTKLEIKR
Take B3: the IC50 in assay [3] is over 10 µg/mL.

B4: h5F9.20 (antibody, human IgG1, V domains shown)
VH: B2 VH with L11V, S16R, K19R, V23A, K42G, E82Q, S88A, I93V, V109T
VL: B3 VL with M4L, Y41F, L42Q, K44R, Q50R, L51R
B4: the IC50 in assay [3] was over 2 µg/mL.

B5: h5F9.8 (antibody, human IgG1, V domains shown)
VH: B2 VH with S16G, K19R, V23A, K42G, E82Q, S88A, I93V, V109T
VL: B3 VL with Y41F, L42Q, K44R, Q50R, L51R
For the molecule B5, in assay [3], the 50% inhibitory concentration (IC50) was over 10 µg/mL.

B6: h5F9.4 (antibody, human IgG1, V domains shown)
VH: B2 VH with S16G, K19R, V23A, K42G, E82Q, S88A, I93V, V109T
VL: B3 VL with V2I, S7T, P12S, L15P
B6: the concentration for half-maximal inhibition (IC50) in assay [3] was over 10 µg/mL.

B7: h5F9.22 (antibody, human IgG1, V domains shown)
VH: B2 VH with L11V, S16R, K19R, V23A, K42G, E82Q, S88A, I93V, V109T
VL: B3 VL with M4L
Turning to B7, in assay [3], the IC50 was over 2 µg/mL.

B8: h5F9.26 (antibody, human IgG1, V domains shown)
VH: B2 VH with S16G, K19R, V23A, K42G, E82Q, S88A, I93V, V109T
VL: B3 VL with M4L
B8: the IC50 in assay [3] is over 2 µg/mL.

B9: h5F9.2 (antibody, human IgG1, V domains shown)
VH: B2 VH with L11V, S16R, K19R, V23A, K42G, E82Q, S88A, I93V, V109T
VL: B3 VL with V2I, S7T, P12S, L15P
Take B9: the half-maximal inhibitory concentration (IC50) in assay [3] is over 10 µg/mL.

B10: h5F9.6 (antibody, human IgG1, V domains shown)
VH: B2 VH with L11V, S16R, K19R, V23A, K42G, E82Q, S88A, I93V, V109T
VL: B3 VL with Y41F, L42Q, K44R, Q50R, L51R
B10: the concentration for half-maximal inhibition (IC50) in assay [3] was over 10 µg/mL.

B11: h5F9.10 (antibody, human IgG1, V domains shown)
VH: B2 VH with L11V, S16R, K19R, V23A, K42G, E82Q, S88A, I93V, V109T
VL: B3 VL
On to B11, for which the IC50 in assay [3] was over 10 µg/mL.

B12: h5F9.1 (antibody, human IgG1, V domains shown)
VH: EVQLVESGGGVVQPGRSLRLSCAASGFTFSNYGMNWVRQAPGKGLEWVAMIYYDSSEKHYADSVKGRFTISRDNSKNTLYLQMNSLRAEDTAVYYCARGTTPDYWGQGTMVTVSS
VL: B3 VL with V2I, S7T, P12S, L15P
Take B12: the 50% inhibitory concentration (IC50) in assay [3] was over 10 µg/mL.

B13: h5F9.3 (antibody, human IgG1, V domains shown)
VH: B12 VH with V11L, R16G, A49S, R98K
VL: B3 VL with V2I, S7T, P12S, L15P
On to B13, for which the concentration for half-maximal inhibition (IC50) in assay [3] is over 10 µg/mL.

B14: h5F9.7 (antibody, human IgG1, V domains shown)
VH: B12 VH with V11L, R16G, A49S, R98K
VL: B3 VL with Y41F, L42Q, K44R, Q50R, L51R
As to B14, the IC50 in assay [3] was over 10 µg/mL.

B15: h5F9.5 (antibody, human IgG1, V domains shown)
VH: B12 VH
VL: B3 VL with Y41F, L42Q, K44R, Q50R, L51R
Consider B15, for which the IC50 in assay [3] is over 10 µg/mL.

B16: h5F9.9 (antibody, human IgG1, V domains shown)
VH: B12 VH
VL: B3 VL
With B16, the IC50 in assay [3] was over 10 µg/mL.

B17: h5F9.11 (antibody, human IgG1, V domains shown)
VH: B12 VH with V11L, R16G, A49S, R98K
VL: B3 VL
For B17, the IC50 in assay [3] is over 10 µg/mL.

What is called EC50 (read off the curve) is the concentration needed to bring the measured effect to its halfway point. As a reminder, the IC50 is the concentration needed to halve the response being measured.
